PMC9908020, “Structural basis of the transcription termination factor Rho engagement with transcribing RNA polymerase from Thermus thermophilus” (Science Advances, 2023)
Blank lines part the entries; values can stand above or below the molecule they belong to.

B2: Thermus thermophilus transcription termination factor Rho (enzyme)
chain: MRRKETLQETPLTYQELASKILPELHLLAQEAGIEGYKRMKKDQLIMALLERQTQGEGLRLVKGYLEISQDGYGFLTENLHNLESRVAIVSAGLIKQYALRAGDYVVGQARPPRENERYATLLKVEAVNNLDPEAAKNRPRFDELTPQFPDRQIRLETTPDELSTRVIDLLAPIGRGQRGLIVAPPKAGKTTLLKKIANAVLKNEPDIKVIVLLIDERPEEVTDFRESVQGAEVIASTFDEPPQNHIRVAEFVHERAKRIVEEGGHVMILLDSITRLARANNLVTPPTGRTLSGGLDSAALYFPKRFLGAARNIRGGGSLTILATALVETGSRMDDVIFEEFKGTGNMELHLSRRLEERRIFPAIDILKSGTRREELLLGEEVTHKMWLLRKVLADMDPAEAMEMLLARLARTKNNKEFLASLAAR
notes: Transcription termination factor Rho, Thermus thermophilus; the C terminus is printed as Arg426; the model leaves out 59 residues at the N terminus; Closed-ring homo-hexamer with ADP·BeF3 at the protomer interfaces; RNA is threaded through the central channel in the RNAP complexes; also called wild-type Rho; Rho hexamer; not shown: His tag, N-terminal, cleaved

Experiments:
T. thermophilus Rho = target: T1, T. thermophilus Rho (Thermus thermophilus, UniProt Q5SJE9); assay: Rho-dependent RNA release from immobilised RNAP elongation complex, urea-PAGE; assay type: biochemical; conditions: 1 mM ATP, 200 nM Rho, 10 mM MgCl2, pH 7.5, 65 °C; with T. thermophilus RNAP elongation complex
T1 construct: full-length (C terminus Arg426), N-terminal His-tag cleaved by HRV 3C; pET-47b in E. coli Rosetta2 (DE3); closed-ring homohexamer; model lacks 59 N-terminal residues

[1] = target: B2; assay: cryo-EM structure; type 1 class: EC (RNAP with template DNA and 125-nt nascent RNA, gel filtered) mixed with Rho and 0.5 mM ADP·BeF3 in buffer C (20 mM Hepes-NaOH pH 7.5, 250 mM KCl, 5 mM MgCl2, 1% glycerol), cross-linked with 3 mM BS3; nascent RNA threaded into the Rho ring; conditions: both partners purified
[2] = target: T2, Thermus thermophilus RNA polymerase β′ subunit (Thermus thermophilus, UniProt Q8RQE8 1-1524); assay: as above; conditions: both partners purified
T2 construct: RNA polymerase β′ subunit, Thermus thermophilus; It stood in the assay as a subunit of the RNAP complex m2; source: E. coli Rosetta2 (DE3), coexpressed and purified as part of RNAP

[3] = target: T3, Thermus thermophilus RNA polymerase β subunit (Thermus thermophilus, UniProt Q8RQE9 1-1119); assay: as above; conditions: both partners purified
T3 construct: RNA polymerase β subunit, Thermus thermophilus; It stood in the assay as a subunit of the RNAP complex m2; source: E. coli Rosetta2 (DE3), coexpressed and purified as part of RNAP

[4] = target: T4, Thermus thermophilus RNA polymerase lacking the β-flap tip helix (Thermus thermophilus, UniProt Q5SHR6 1-315; Q8RQE9 1-761; Q8RQE9 783-1119; Q8RQE8 1-1524; Q8RQE7 1-99); assay: cryo-EM structure; EC-Rho complex prepared with the β-flap tip-deleted RNAP; 2D class averages of ~3000 particles of the RNAP-Rho complex; conditions: both partners purified
T4 construct: RNA polymerase α subunit, Thermus thermophilus; RNA polymerase β subunit, Thermus thermophilus, up to the residue before the deleted β-flap tip helix (β762 to β782 removed); three alanine residues that fill the gap; RNA polymerase β subunit, Thermus thermophilus, from the residue after the deleted β-flap tip helix; RNA polymerase β′ subunit, Thermus thermophilus; RNA polymerase ω subunit, Thermus …

[5] = target: the molecule itself; assay: cryo-EM structure; Rho-only class of the same sample: closed-ring hexamer with ADP·BeF3 between the protomers; C6 symmetry

Molecule: Nc1ncnc2c1ncn2[C@@H]1O[C@H](COP(=O)(O)OP(=O)(O)OP(=O)(O)O)[C@@H](O)[C@H]1O [ATP]
Rho-dependent RNA release from immobilised RNAP elongation complex, urea-PAGE (T. thermophilus Rho): The RNA release is ATP dependent, as it did not occur in either the absence

binding result [1]: binds
B1: Thermus thermophilus RNA polymerase ω subunit (natural protein)
chain: MAEPGIDKLFGMVDSKYRLTVVVAKRAQQLLRHGFKNTVLEPEERPKMQTLEGLFDDPNAVTWAMKELLTGRLVFGENLVPEDRLQKEMERLYPVEREE
notes: RNA polymerase ω subunit, Thermus thermophilus; It stood in the assay as a subunit of the RNAP complex m2; It was cloned in pET-47b, which may add a cleavable N-terminal His tag (surmise); source: E. coli Rosetta2 (DE3), coexpressed and purified as part of RNAP

Molecule: B2
binding result [2]: binds
binding result [3]: binds
binding result [4]: binds
stoichiometry N [5]: 6
